One assay addresses murine IL-11 (mouse) (UniProt P47873). The assay is described as follows: cell-based or functional assay.
Another assay has as its target human IL-11 (human) (UniProt P20809). The assay can be described thus: cell-based or functional assay.
UniProt P20809, sequence (P20809 22-199 limits assumed): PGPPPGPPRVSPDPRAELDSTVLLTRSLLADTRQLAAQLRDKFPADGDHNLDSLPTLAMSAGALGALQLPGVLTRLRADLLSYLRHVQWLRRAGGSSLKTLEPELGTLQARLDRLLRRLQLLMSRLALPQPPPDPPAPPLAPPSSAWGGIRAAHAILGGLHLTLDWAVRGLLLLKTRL

UniProt P47873, sequence (P47873 22-199 limits assumed): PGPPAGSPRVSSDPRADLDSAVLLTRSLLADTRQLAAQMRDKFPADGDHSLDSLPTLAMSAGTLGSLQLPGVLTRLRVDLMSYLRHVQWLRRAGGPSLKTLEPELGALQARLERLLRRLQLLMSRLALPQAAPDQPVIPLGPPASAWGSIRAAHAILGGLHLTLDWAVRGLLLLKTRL

Take “neutralising anti-human IL-11 monoclonal antibody (Monoclonal Mouse IgG2A; Clone #22626; Catalog No. MAB218; R&D Systems, MN, USA)”: in the assay with murine IL-11 (mouse), the percentage of activated fibroblasts normalised to non-stimulated cultures (fold of non-stimulated cultures) amounted to 1.24; the percentage of activated mouse atrial fibroblasts with TGFβ1, against unstimulated cultures (fold of unstimulated cultures) amounted to 1.44; the percentage of activated mouse dermal fibroblasts with TGFβ1 (% activated fibroblasts) came to 39.4. In addition, in the assay with human IL-11 (human), the percentage of activated (αSMA-positive) human atrial fibroblasts with TGFβ1 (% activated fibroblasts) was 28.3; the percentage of activated fibroblasts normalised to non-stimulated cultures (fold of non-stimulated cultures) came out at 0.99; the percentage of activated human atrial fibroblasts with TGFβ1, against unstimulated cultures (fold of unstimulated cultures) turned out to be 0.89.

For the origin of these results see patent EP4810608A2.
